In patent US20090203602A1:

Assays:
[1] = target: BRAF V599E V-raf murine sarcoma viral oncogene homolog B1 V599E mutation, P15056; assay: cell-based or functional assay
[2] = target: PRKCB1 (PKC beta I) Protein kinase C, beta 1, P05771; assay: cell-based or functional assay

% Inhibition mean [1]: 99.8% | % Inhibition mean [2]: 88%
Binder: SGRPPMIVWFNRPFLIAVSHTHGQTILFMAKVINPVGA [D3 peptide]
